Assay results taken from patent US20230391872A1 (ANAPTYSBIO, published 2023).
Each block holds one molecule with its values, some of them ahead of it.

What was measured:
[1] = target: human BTLA on cells (stably transfected 293c18 cells; human peripheral blood T and B cells) (human) (UniProt Q7Z6A9); assay: flow cytometry (MFI) on gated CD8+ T cells of human PBMC, APC-labelled antibody [middle panel (Naive CD8+ T cells]
[2] = target: human BTLA on cells (stably transfected 293c18 cells; human peripheral blood T and B cells) (human) (UniProt Q7Z6A9); assay: flow cytometry (MFI) on gated CD4+ T cells of human PBMC, APC-labelled antibody [left panel (Naive CD4+ T cells]
[3] = target: cynomolgus monkey BTLA on cells (stably transfected 293c18 clone 1G5; cynomolgus peripheral blood T and B cells) (cynomolgus monkey); assay: flow cytometry dot plot, CD3 (PerCP Cy5.5) against BTLA (APC), lysed cynomolgus monkey whole blood, antibody at 33 nM
[4] = target: T1, recombinant human BTLA monomer, hBTLA amino acids 31-155 followed by a 6-his tag (human, UniProt Q7Z6A9 31-155); assay: hydrogen-deuterium exchange with recombinant human BTLA monomer
T1 construct: Antigen of the hydrogen-deuterium exchange experiments
T1 sequence: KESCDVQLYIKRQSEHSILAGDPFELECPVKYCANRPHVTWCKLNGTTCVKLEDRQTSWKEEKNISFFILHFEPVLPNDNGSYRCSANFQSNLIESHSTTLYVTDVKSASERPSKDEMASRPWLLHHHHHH
Experimental: Hydrogen-deuterium exchange mapping of the peptides on BTLA bound by the 6G3 and 10D8 antibodies disclosed herein was performed using recombinant human BTLA monomer. […] FIGS. 7A, 7B, and 7C show a ribbon model of the crystal structure of human BTLA extracellular domain (black) in complex with a space-filling model of the crystal structure of human HVEM extracellular binding domain (light gray) rendered in PyMOL from Protein Data Bank structure (Compaan et al., J. Biol Chem 280: 39553-39561 (2005)). FIG. 7A summarizes a hydrogen-deuterium exchange experiment using the 6G3 antibody (APE12839.05 (H Chain SEQ ID NO: 144, L Chain SEQ ID NO: 174)), FIG. 7B summarizes a hydrogen-deuterium exchange experiment using the 10D8 antibody (APE11482.06), and FIG. 7C summarizes a hydrogen-deuterium exchange experiment using a reference BTLA antagonist antibody (APE10693.17). For each experiment, the BTLA/antibody mixture or BTLA alone was deuterium labeled for 4, 10, or 60 minutes in order to see the exchange kinetics. After incubation, the BTLA protein was subjected to rapid enzymatic proteolysis at acidic pH and the incorporation of deuterium into resulting peptides quantified by liquid chromatography-mass spectrometry.

[5] = target: T2, cynomolgus monkey BTLA ECD-his (monomeric cynomolgus monkey BTLA-his) (cynomolgus monkey, UniProt A0A2K5W7M7 31-157); assay: SPR (Biacore T200), antibody captured on anti-human IgG chip, monomeric BTLA-his flowed at 60, 20, 6.7 and 2.2 nM, 1:1 binding model, 25 C [lower left panel (Cyno BTLA]
T2 construct: extracellular domain; also called cynomolgus monkey BTLA extracellular domain
T2 sequence: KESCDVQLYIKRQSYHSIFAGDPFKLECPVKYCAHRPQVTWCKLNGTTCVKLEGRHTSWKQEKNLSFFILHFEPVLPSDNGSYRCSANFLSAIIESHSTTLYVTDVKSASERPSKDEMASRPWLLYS
Experimental: (§1) Surface plasmon resonance (SPR) analyses were carried out using a Biacore T200 (GE Healthcare Life Sciences). Kinetic constants were determined using a 1:1 binding model in the Biacore T200 Evaluation Software to calculate on- and off-rates (kₐ and kd, respectively), and dissociation constants as a measure of overall affinity (KD). Anti-human IgG (GE Healthcare Life Sciences) was immobilized on a CMS chip using EDC-activated amine coupling chemistry (420 seconds contact at a flow rate of 10 μl/min). Antibodies (APE10585.04 6G3 IgG1 and APE10840.05 6G3 IgG4), each at 0.5 μg/m1) were captured in a 60 second contact with the flow cell using a flow rate of 10 μl/min. Monomeric human BTLA-his or cynomolgus monkey BTLA-his at 60 nM, 20 nM, 6.7 nM and 2.2 nM concentrations was flowed over captured antibody (480 seconds association, 1800 seconds dissociation). Runs were at 25° C. and used buffer containing 10 mM HEPES, pH 7.6, 150 mM NaCl, 3 mM EDTA, 0.05% polysorbate 20 (HBS-EP+, pH 7.6; Teknova) for the mobile phase and all dilutions. At the end of each cycle, bound antigen was removed by regeneration with two successive exposures (60 seconds and 90 seconds) to 3 M MgCl2 (30 μl/min). Sensorgrams and binding constants corresponding to the experiment are shown in FIG. 1 (human BTLA) and FIG. 1 (cynomolgus monkey BTLA). Antibody capture levels in resonance units (RU) are listed at the right side of each panel.

[6] = target: T3, human BTLA ECD-his (monomeric human BTLA-his) (human, UniProt Q7Z6A9 31-157); assay: SPR (Biacore T200), antibody captured on anti-human IgG chip, monomeric BTLA-his flowed at 60, 20, 6.7 and 2.2 nM, 1:1 binding model, 25 C [upper left panel (Hu BTLA]
T3 construct: extracellular domain; also called human BTLA extracellular domain
T3 sequence (looked up): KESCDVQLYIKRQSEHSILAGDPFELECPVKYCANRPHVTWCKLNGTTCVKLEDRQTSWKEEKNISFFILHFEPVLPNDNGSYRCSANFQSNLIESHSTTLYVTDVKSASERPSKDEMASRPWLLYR
Experimental: as §1

[7] = target: T2, cynomolgus monkey BTLA ECD-his …; assay: SPR, Biacore T200, antibody captured on anti-human IgG, monomeric cynomolgus monkey BTLA-his as analyte, 25 °C, 1:1 model; 6G3 IgG1 (APE10585.04) captured on the chip; cynomolgus BTLA-his analyte
Experimental: as §1, with “Antibody capture levels in resonance units (RU) are listed at the right side of each panel.” left out

[8] = target: T3, human BTLA ECD-his (monomeric human …); assay: SPR, Biacore T200, antibody captured on anti-human IgG, monomeric human BTLA-his as analyte, 25 °C, 1:1 model; 6G3 IgG1 (APE10585.04) captured on the chip; human BTLA-his analyte
Experimental: as §1, with “Antibody capture levels in resonance units (RU) are listed at the right side of each panel.” left out

[9] = target: T4, purified recombinant BTLA-ECD (Example 19)
T4 sequence (Q7Z6A9 31-157, species assumed, looked up): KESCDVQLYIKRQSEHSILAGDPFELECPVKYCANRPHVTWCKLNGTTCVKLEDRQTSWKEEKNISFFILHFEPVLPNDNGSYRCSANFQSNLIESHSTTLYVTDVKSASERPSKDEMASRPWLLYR

EC50 (read off the curve) [1]: 3 nM | EC50 (read off the curve) [2]: 2 nM
Molecule: reference anti-BTLA antibody MIH26 (APC-labeled, BioLegend)

Q8-2 (percent CD3+ BTLA+ cells) [3]: 35.8% | Q8-4 (percent CD3- BTLA+ cells) [3]: 28% | Total BTLA (percent of gated cells BTLA-positive) [3]: 63.9%
Molecule: APC-Mouse Anti-Human CD272 (BTLA) reference antibody, clone J168-540 (BD Biosciences)

binding result [4]: binds
B1: 10D8 antibody (APE11482.06) (antibody, V domains shown)
VH: QVQLVQSGAEVKKPGASVKVSCKASGYTLTDYTIHWVRQAPGQRLEWMGWIYPGSGNTKYNDEFKVRVTITRDTSASTAYMELSSLRSEDTAVYYCARRNYYAMEYWGQGTTVTVSS
VL: DIQMTQSPSSLSASVGDRVTITCKASQNVFTNVAWFQQKPGKAPKPLIYSASYRYSGVPSRFSGSGSGTDFTLTISSLQPEDFATYYCQQYSTYPYTFGQGTKLEIKR

Kd [5]: 10.8 nM | koff [5]: 0.00295 s⁻¹ | kon [5]: 272000 M⁻¹ s⁻¹ | Kd [6]: 3.56 nM | koff [6]: 0.000245 s⁻¹ | kon [6]: 68900 M⁻¹ s⁻¹ | Kd [7]: ~11 nM | Kd [8]: ~5 nM
B2: 6G3 IgG1 anti-BTLA antibody (APE10585.04) (antibody, V domains shown)
VH: QVQLVQSGAEVKKPGSSVKVSCKASGYVFSTSWMNWVRQAPGQGLEWMGRIYPGDADTNYVGKFKGRVTITADKSTTTAYMELSSLRSEDTAVYFCAKSGTFNFGNYRWYFDVWGKGTTVTVSS
VL: AIQLTQSPSSLSASVGDRVTITCRVSENIYSHLAWYQQKPGKAPKLLIYAATNLALGVPSRFSGSGSGTDYTLTISSLQPEDFATYYCQLFWGPPLTFGGGTKVEIKR
notes: Same variable regions as 6G3 IgG4, in IgG1 format; also called APE10585.x; APE10585.04 6G3 IgG1

B3: purified recombinant Proteinase 3 (PR3) (protein)
chain: IVGGHEAQPHSRPYMASLQMRGNPGSHFCGGTLIHPSFVLTAAHCLRDIPQRLVNVVLGAHNVRTQEPTQQHFSVAQVFLNNYDAENKLNDVLLIQLSSPANLSASVATVQLPQQDQPVPHGTQCLAMGWGRVGAHDPPAQVLQELNVTVVTFFCRPHNICTFVPRRKAGICFGDSGGPLICDGIIQGIDSFVIWGCATRLFPDFFTRVALYVDWIRSTLR
proteolytic cleavage after co-incubation up to 60 minutes (gel lanes) [9]: soluble BLTA-ECD was cleaved into multiple smaller fragments
